We go through 15 molecules from patent US20200181262A1 (published 2020).

For test [1], the target named is T1, recombinant human FcRn (Sino Biological Inc. Cat. No. CT009-H08H) (human, UniProt P55899 24-290; P61769 21-119).
T1 construct: Bought protein; also called hFcRn (SINO); immobilized FcRn
The test is described as follows: scFv competition ELISA vs biotinylated parent murine antibody, captured FcRn, pH 7.4.
Experimental: (§1) A total of about 60 scFv antibodies from the VH CDR3 and VL CDR3 libraries were selected for further study. The scFv antibodies were prepared from bacterial periplasmic extracts, and tested by competition ELISA at pH 6.0 and pH 7.4. […] As in the ELISA used to test humanized variants, a 96 well flat bottom microtitre plate was pre-coated with 1 μg/ml of an FcRn antibody specific for an albumin-binding epitope distinct from the Fc-binding region. Binding was determined at pH 7.4 and pH 6.0.

For test [2], the target named is T1, recombinant human FcRn (Sino Biological …). Kind of test: scFv competition ELISA vs biotinylated parent murine antibody, captured FcRn, pH 6.
Experimental: as §1
Test [3] concerns the target T2, FcRn (analyte of the BIACORE studies of Tables 9-11, tables titled anti-human FcRn mAbs) (human, UniProt P55899 24-290; P61769 21-119).
T2 construct: also called analyte (FcRn)
Kind of test: SPR, antibody captured on protein A, FcRn 50-0.02 nM, 1:1 model.
Experimental: For kinetic analysis, a 2-fold dilution range was selected from 50-0.02 nM FcRn. The association phase of FcRn analyte was monitored for 450 seconds, and dissociation was measured for 1500 seconds, at 40 μl/min. Fc1 was a reference channel and was subtracted from other flow cells to correct for non-specific binding. Kinetic values are based on a 1:1 binding model (Table 11).

Test [4] addresses T2, FcRn (analyte of the BIACORE studies of …). The test is described as follows: SPR (BIACORE), antibody immobilized on CM5, FcRn injected, 1:1 Langmuir, pH 7.4. For orientation: In SPR one partner is held on a chip, and binding of the other changes the refractive index at the surface.
Experimental: (§2) Antibodies were diluted into 10 mM NaAc, pH 4.5, and immobilized onto BIACORE® CM5 chips to RU levels of approximately 500-1000. Analysis was performed by injection of FcRn at concentrations of 12-800 nM in 1×PBS-P at pH 7.4 or pH 6.0.
Test [5] has the same target. Kind of test: SPR (BIACORE), antibody immobilized on CM5, FcRn injected, 1:1 Langmuir, pH 6.0.
Experimental: as §2

T1 sequence (P55899 24-290 limits assumed, chain 1 of 2): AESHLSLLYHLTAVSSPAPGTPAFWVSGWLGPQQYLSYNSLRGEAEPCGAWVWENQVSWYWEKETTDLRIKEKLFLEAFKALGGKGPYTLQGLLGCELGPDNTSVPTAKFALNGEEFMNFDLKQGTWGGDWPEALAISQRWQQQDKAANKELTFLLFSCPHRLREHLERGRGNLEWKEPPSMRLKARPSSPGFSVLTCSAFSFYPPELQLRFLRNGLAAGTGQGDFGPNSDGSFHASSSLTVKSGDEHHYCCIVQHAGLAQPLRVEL
T1 sequence (P61769 21-119 limits assumed, chain 2 of 2): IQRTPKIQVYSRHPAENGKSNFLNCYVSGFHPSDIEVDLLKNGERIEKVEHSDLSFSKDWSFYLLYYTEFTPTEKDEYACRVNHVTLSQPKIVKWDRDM
T2 sequence (P55899 24-290 limits assumed, chain 1 of 2): as the sequence (P55899 24-290 limits assumed, chain 1 of 2) above
T2 sequence (P61769 21-119 limits assumed, chain 2 of 2): as the sequence (P61769 21-119 limits assumed, chain 2 of 2) above

B1: H1 VH1 scFv with humanized parental Vκ1 (scFv)
scFv: QVQLVQSGAELKKPGASVKLSCKASGYTFTSYGISWVKQATGQGLEWIGEIYPRSGNTYYNEKFKGRATLTADKSTSTAYMELRSLRSEDSAVYFCARSTTVSPPPLWGTGTTVTVSSGGGGSGGGGSGGGGSDIQMTQSPSYLSASVGDRVTITCKASDHINNWLAWYQQKPGQAPRLLISGATSLETGVPSRFSGSGTGKDYTLTISSLQTEDFATYYCQQYWSTPYTFGGGTKVEIK
notes: from bacterial periplasmic extracts
Regarding B1, the “fold decrease in IC50 (relative to humanized parent scFV)” value in test [1] was found to be 36.4 fold; in test [2] it was 17.1 fold.

B2: A7 VH1 scFv with humanized parental Vκ1 (scFv)
scFv: QVQLVQSGAELKKPGASVKLSCKASGYTFTSYGISWVKQATGQGLEWIGEIYPRSGNTYYNEKFKGRATLTADKSTSTAYMELRSLRSEDSAVYFCARSTTVSPPPIWGTGTTVTVSSGGGGSGGGGSGGGGSDIQMTQSPSYLSASVGDRVTITCKASDHINNWLAWYQQKPGQAPRLLISGATSLETGVPSRFSGSGTGKDYTLTISSLQTEDFATYYCQQYWSTPYTFGGGTKVEIK
B2: the “fold decrease in IC50 (relative to humanized parent scFV)” value in test [1] was found to be 20 fold; in test [2], 17 fold.

B3: E4 VH1 scFv with humanized parental Vκ1 (scFv)
scFv: QVQLVQSGAELKKPGASVKLSCKASGYTFTSYGISWVKQATGQGLEWIGEIYPRSGNTYYNEKFKGRATLTADKSTSTAYMELRSLRSEDSAVYFCARSTTVHPDHNWGTGTTVTVSSGGGGSGGGGSGGGGSDIQMTQSPSYLSASVGDRVTITCKASDHINNWLAWYQQKPGQAPRLLISGATSLETGVPSRFSGSGTGKDYTLTISSLQTEDFATYYCQQYWSTPYTFGGGTKVEIK
Take B3: the entries for the “fold decrease in IC50 (relative to humanized parent scFV)” value in test [1] and in test [2] were 16.8 fold and 3.65 fold, respectively.

B4: H2 VH1 scFv with humanized parental Vκ1 (scFv)
scFv: QVQLVQSGAELKKPGASVKLSCKASGYTFTSYGISWVKQATGQGLEWIGEIYPRSGNTYYNEKFKGRATLTADKSTSTAYMELRSLRSEDSAVYFCARSTTVAPPAHWGTGTTVTVSSGGGGSGGGGSGGGGSDIQMTQSPSYLSASVGDRVTITCKASDHINNWLAWYQQKPGQAPRLLISGATSLETGVPSRFSGSGTGKDYTLTISSLQTEDFATYYCQQYWSTPYTFGGGTKVEIK
Consider B4, for which the “fold decrease in IC50 (relative to humanized parent scFV)” value in test [1] worked out at 23.8 fold; in test [2], 14.2 fold.

B5: A4 VH1 scFv with humanized parental Vκ1 (scFv)
scFv: QVQLVQSGAELKKPGASVKLSCKASGYTFTSYGISWVKQATGQGLEWIGEIYPRSGNTYYNEKFKGRATLTADKSTSTAYMELRSLRSEDSAVYFCARSTTVSPADFRGTGTTVTVSSGGGGSGGGGSGGGGSDIQMTQSPSYLSASVGDRVTITCKASDHINNWLAWYQQKPGQAPRLLISGATSLETGVPSRFSGSGTGKDYTLTISSLQTEDFATYYCQQYWSTPYTFGGGTKVEIK
Take B5: the “fold decrease in IC50 (relative to humanized parent scFV)” value in test [1] is 7.18 fold; in test [2], 5.04 fold.

B6: C4 VH1 scFv with humanized parental Vκ1 (scFv)
scFv: QVQLVQSGAELKKPGASVKLSCKASGYTFTSYGISWVKQATGQGLEWIGEIYPRSGNTYYNEKFKGRATLTADKSTSTAYMELRSLRSEDSAVYFCARSTTVAPPRLWGTGTTVTVSSGGGGSGGGGSGGGGSDIQMTQSPSYLSASVGDRVTITCKASDHINNWLAWYQQKPGQAPRLLISGATSLETGVPSRFSGSGTGKDYTLTISSLQTEDFATYYCQQYWSTPYTFGGGTKVEIK
B6: the entries for the “fold decrease in IC50 (relative to humanized parent scFV)” value in test [1] and in test [2] were 24.4 fold and 18.6 fold, respectively.

B7: G7 VH1 scFv with humanized parental Vκ1 (scFv)
scFv: QVQLVQSGAELKKPGASVKLSCKASGYTFTSYGISWVKQATGQGLEWIGEIYPRSGNTYYNEKFKGRATLTADKSTSTAYMELRSLRSEDSAVYFCARSTTVAPPGHWGTGTTVTVSSGGGGSGGGGSGGGGSDIQMTQSPSYLSASVGDRVTITCKASDHINNWLAWYQQKPGQAPRLLISGATSLETGVPSRFSGSGTGKDYTLTISSLQTEDFATYYCQQYWSTPYTFGGGTKVEIK
Turning to B7, the “fold decrease in IC50 (relative to humanized parent scFV)” value in test [1] worked out at 30.8 fold; in test [2] it was 17.7 fold.

B8: G9 VH1 scFv with humanized parental Vκ1 (scFv)
scFv: QVQLVQSGAELKKPGASVKLSCKASGYTFTSYGISWVKQATGQGLEWIGEIYPRSGNTYYNEKFKGRATLTADKSTSTAYMELRSLRSEDSAVYFCARSTTVSPPRVWGTGTTVTVSSGGGGSGGGGSGGGGSDIQMTQSPSYLSASVGDRVTITCKASDHINNWLAWYQQKPGQAPRLLISGATSLETGVPSRFSGSGTGKDYTLTISSLQTEDFATYYCQQYWSTPYTFGGGTKVEIK
Regarding B8, the “fold decrease in IC50 (relative to humanized parent scFV)” value stood at 25.3 fold in test [1] and 21.7 fold in test [2].

B9: H4 VH1 scFv with humanized parental Vκ1 (scFv)
scFv: QVQLVQSGAELKKPGASVKLSCKASGYTFTSYGISWVKQATGQGLEWIGEIYPRSGNTYYNEKFKGRATLTADKSTSTAYMELRSLRSEDSAVYFCARSTTVSAPGVWGTGTTVTVSSGGGGSGGGGSGGGGSDIQMTQSPSYLSASVGDRVTITCKASDHINNWLAWYQQKPGQAPRLLISGATSLETGVPSRFSGSGTGKDYTLTISSLQTEDFATYYCQQYWSTPYTFGGGTKVEIK
B9: the results for the “fold decrease in IC50 (relative to humanized parent scFV)” value in test [1] and in test [2] were 9.29 fold and 6.5 fold, respectively.

B10: E7 VH1 scFv with humanized parental Vκ1 (scFv)
scFv: QVQLVQSGAEPKKPGASVKLSCKASGYTFTSYGISWVKQATGQGLEWIGEIYPRSGNTYYNEKFKGRATLTADKSTSTAYMELRSLRSEDSAVYFCARSTTVSPPHLWGTGTTVTVSSGGGGSGGGGSGGGGSDIQMTQSPSYLSASVGDRVTITCKASDHINNWLAWYQQKPGQAPRLLISGATSLETGVPSRFSGSGTGKDYTLTISSLQTEDFATYYCQQYWSTPYTFGGGTKVEIK
On to B10, for which the “fold decrease in IC50 (relative to humanized parent scFV)” value in test [1] is 37.4 fold; in test [2] it was 16.4 fold.

B11: F7 VH1 scFv with humanized parental Vκ1 (scFv)
scFv: QVQLVQSGAELKKPGASVKLSCKASGYTFTSYGISWVKQATGQGLEWIGEIYPRSGNTYYNEKFKGRATLTADKSTSTAYMELRSLRSEDSAVYFCARSTTVAPPPLWGTGTTVTVSSGGGGSGGGGSGGGGSDIQMTQSPSYLSASVGDRVTITCKASDHINNWLAWYQQKPGQAPRLLISGATSLETGVPSRFSGSGTGKDYTLTISSLQTEDFATYYCQQYWSTPYTFGGGTKVEIK
Turning to B11, the “fold decrease in IC50 (relative to humanized parent scFV)” value in test [1] came out at 26.4 fold; in test [2], 16.4 fold.

B12: G4 VH1 scFv with humanized parental Vκ1 (scFv)
scFv: QVQLVQSGAELKKPGASVKLSCKASGYTFTSYGISWVKQATGQGLEWIGEIYPRSGNTYYNEKFKGRATLTADKSTSTAYMELRSLRSEDSAVYFCARSTTVSPPHLWGTGTTVTVSSGGGGSGGGGSGGGGSDIQMTQSPSYLSASVGDRVTITCKASDHINNWLAWYQQKPGQAPRLLISGATSLETGVPSRFSGSGTGKDYTLTISSLQTEDFATYYCQQYWSTPYTFGGGTKVEIK
In the case of B12, the results for the “fold decrease in IC50 (relative to humanized parent scFV)” value in test [1] and in test [2] were 29 fold and 18.9 fold, respectively.

B13: H1VH1_Vκ2 antibody (antibody, IgG4, V domains shown)
VH: QVQLVQSGAELKKPGASVKLSCKASGYTFTSYGISWVKQATGQGLEWIGEIYPRSGNTYYNEKFKGRATLTADKSTSTAYMELRSLRSEDSAVYFCARSTTVSPPPLWGTGTTVTVSS
VL: DIQMTQSPSSLSASVGDRVTITCKASDHINNWLAWYQQKPGQAPRLLISGATSLETGVPSRFSGSGTGKDYTLTISSLQPEDFATYYCQQYWSTPYTFGGGTKVEIK
For B13, in test [3], binding was characterised by a dissociation constant (Kd) of 0.32 nM; the off-rate constant (koff) (commonly the first-order rate constant of dissociation) stood at 9.28e-05 s⁻¹; the kon (as a rule, the second-order rate constant of association) was 289000 M⁻¹ s⁻¹.

B14: VH1_G4/Vκ2_E8 IgG4 (antibody, V domains shown)
VH: QVQLVQSGAELKKPGASVKLSCKASGYTFTSYGISWVKQATGQGLEWIGEIYPRSGNTYYNEKFKGRATLTADKSTSTAYMELRSLRSEDSAVYFCARSTTVSPPHLWGTGTTVTVSS
VL: DIQMTQSPSSLSASVGDRVTITCKASDHINNWLAWYQQKPGQAPRLLISGATSLETGVPSRFSGSGTGKDYTLTISSLQTEDFATYYCHQYYSTPYTFGGGTKVEIK
notes: bivalent IgG4, kappa; also called G4VH1E8Vκ2
B14: in test [4], the Kd – broadly, the free concentration of one partner at which half of the binding sites on the other are occupied at equilibrium, for simple one-to-one binding – amounted to 13.1 nM; the koff stood at 0.000544 s⁻¹; the kon was 54300 M⁻¹ s⁻¹. In test [5], this molecule came in with a Kd of 1.3 nM, a koff of 0.000298 s⁻¹ and a kon of 229000 M⁻¹ s⁻¹.

B15: VH1_A8/Vκ2_E8 IgG4 (antibody, V domains shown)
VH: QVQLVQSGAELKKPGASVKLSCKASGYTFTSYGISWVKQATGQGLEWIGEIYPRSGNTYYNEKFKGRATLTADKSTSTAYMELRSLKSEDSAVYFCARSTTVSPPAHWGTGTTVTVSS
VL: DIQMTQSPSSLSASVGDRVTITCKASDHINNWLAWYQQKPGQAPRLLISGATSLETGVPSRFSGSGTGKDYTLTISSLQTEDFATYYCHQYYSTPYTFGGGTKVEIK
notes: bivalent IgG4, kappa; also called A8VH1E8Vκ2; A8/E8VK2
In test [4], B15 came in with a Kd of 18.2 nM, a koff of 0.000679 s⁻¹ and an association rate constant (kon) of 43800 M⁻¹ s⁻¹. In addition, in test [5], the Kd was found to be 1.4 nM, the koff is 0.000438 s⁻¹ and the kon is 319000 M⁻¹ s⁻¹.
